Source: patent publication US20250018037A1 (SEOUL NATIONAL UNIVERSITY R AND DB FOUNDATION, published 2025)
No end group written: not given here. *: point of attachment. Biotin = O=C1N[C@H]2[C@H](CS[C@H]2CCCCC(=O)*)N1

Key:
[1] = molecular target: T1, biotin-labeled c-Myc peptide (Biotin-GGGGSEQKLISEEDL); experiment: flow cytometry of human T cells 8 days after transduction, stained with biotin-labeled c-Myc peptide plus streptavidin-PE; axis Myc CAR
T1 construct: It is not the BSA conjugate m23; also called biotin c-Myc peptide; stain for Myc CAR
T1 peptide: Biotin-GGGGSEQKLISEEDL
Description: After 24 h, the activated T cells were harvested, resuspended (1×10⁶/ml) in a TM media containing human IL-7, human IL-15, and the lentiviral concentrate, and cultured for two days for CAR transduction. After washing the transduced T cells, the cells were expanded in TM media with human IL-7 and human IL-15 for eight days before use. CAR expression on the cell surface was determined by flow cytometry using biotin-labeled 6×His peptide (Biotin-[…]; Peptron) for hHis CAR-T or biotin-labeled c-Myc peptide (Biotin-[…]; Peptron) for hMyc CAR-T and PE-labeled streptavidin (Biolegend).

[2] = molecular target: T2, BSA-conjugated c-Myc peptide (also: conjugated to BSA by thiol-maleimide reaction, thiol residue not given here); experiment: indirect ELISA after bio-panning against BSA-conjugated c-Myc peptide
T2 construct: also called the antigen
T2 peptide: EQKLISEEDL

[3] = molecular target: T3, Human CD40 on cells (Raji, Daudi, IM-9) (human, UniProt P25942 21-277); experiment: flow cytometry on Raji cells, anti-Myc staining (axis Myc); number not labelled as MFI on the sheet; 2nd Ab only -30.7
T3 construct: whole, on cells; also called cell surface CD40; hCD40
T3 sequence (P25942 21-277): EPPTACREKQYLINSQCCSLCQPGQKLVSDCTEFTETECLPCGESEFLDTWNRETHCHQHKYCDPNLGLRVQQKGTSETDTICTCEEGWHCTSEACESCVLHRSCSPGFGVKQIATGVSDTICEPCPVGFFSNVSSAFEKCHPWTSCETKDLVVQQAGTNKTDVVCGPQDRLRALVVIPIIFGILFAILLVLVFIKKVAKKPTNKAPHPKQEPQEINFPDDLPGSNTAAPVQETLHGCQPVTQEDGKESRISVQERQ

[4] = molecular target: T4, Biotin conjugated 6×His peptide (also: biotin conjugated, site not given here); experiment: SPR (Biacore 8K): biotin 6×His peptide captured on immobilized streptavidin, scFv injected in 2-fold dilutions (6 curves)
T4 construct: also called histidine hexamer peptide
T4 peptide: HHHHHH
Description: (§1) Since the murine anti-His antibody had decreased binding affinity against 6×His peptide after humanization, affinity maturation was further performed to increase it and chicken anti-CD40 antibody (2B1) was only humanized. Serial dilution antibodies at 6 concentrations were used to characterize the kinetics of antibody-antigen binding by SPR. […] So, there was not affinity loss against their antigen after humanization (FIG. 22B).
(§2) A Biacore 8K SPR system (Cytiva) equipped with CM5 sensor chip (Cytiva) was used to generate binding kinetic rate and affinity constants. To prepare the capture surfaces for anti-His antibodies, streptavidin was immobilized, followed by biotin conjugated 6×His peptide was captured. The antibodies were 2-fold serial diluted with 1×PBS, then injected at a flow rate of 30 μL/min for 3 minutes, allowing 10 minutes dissociation phase. The surface was regenerated using 10 mM glycine, pH 1.5. The kinetics were analyzed using Biacore 8K evaluation software, version 1.0 (Cytiva). In case of anti-CD40 antibodies, anti-human Fc IgG (Jackson ImmunoResearch) was immobilized, and then CD40-hFc protein (Acro Biosystems, #CD0-H5253) was captured. The antibodies were 2-fold serial diluted with HBS-EP+ buffer (10 mm HEPES, 150 mm sodium chloride, 3 mm EDTA, 0.05% Polysorbate 20), then injected at a flow rate of 30 μL/min for 4 minutes, allowing >15 minutes dissociation phase.

[5] = molecular target: T5, CD40-hFc protein (Acro Biosystems, #CD0-H5253) (UniProt P25942 21-193); experiment: SPR (Biacore 8K): CD40-hFc captured on immobilized anti-human Fc IgG, scFv injected in 2-fold dilutions (6 curves)
T5 construct: Bought protein
T5 sequence (P25942 21-193 limits assumed): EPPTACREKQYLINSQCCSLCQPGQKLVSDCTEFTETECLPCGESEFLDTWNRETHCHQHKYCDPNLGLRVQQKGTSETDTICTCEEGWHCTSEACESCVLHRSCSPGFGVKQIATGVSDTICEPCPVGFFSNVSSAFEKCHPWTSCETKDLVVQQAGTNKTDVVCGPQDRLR
Description: as §1, §2

B1: hMyc (8A9) CAR (8A9-BBz), on human T cells (other)
chain: LTQPSSVSANPGETVEITCSGGSSGYYGWHQQKSPGSAPVTVIYENTNRPSDIPSRFSGSKSGSTATLTITGVQADDEAVYFCGSYDSSSASGIFGAGTTLTVLGQSSRSSGGGGSSGGGGSAVTLDESGGGLQTPGGGLSLVCKASGFTFSSYDMAWVRQEPGKGLEYVASISRSGRYTRYGPAVKGRATISRDNGQSTVRLQLNNLRAEDTATYFCTRGGAVSIDTWGHGTEVIVSSTTTPAPRPPTPAPTIASQPLSLRPEACRPAAGGAVHTRGLDFACDIYIWAPLAGTCGVLLLSLVITLYCKRGRKKLLYIFKQPFMRPVQTTQEEDGCSCRFPEEEEGGCELRVKFSRSADAPAYKQGQNQLYNELNLGRREEYDVLDKRRGRDPEMGGKPRRKNPQEGLYNELQKDKMAEAYSEIGMKGERRRGKGHDGLYQGLSTATKDTYDALHMQALPPR
notes: also called hMyc CAR-T cells (8A9)
number over the gate bar (percent of cells in the gate) [1]: 21.9

B2: Anti-Myc scFv clone 8A9 (scFv)
scFv: QAALTQPSSVSANPGETVEITCSGGSSGYYGWHQQKSPGSAPVTVIYENTNRPSDIPSRFSGSKSGSTATLTITGVQADDEAVYFCGSYDSSSASGIFGAGTTLTVLGQSSRSSGGGGSSGGGGSAVTLDESGGGLQTPGGGLSLVCKASGFTFSSYDMAWVRQEPGKGLEYVASISRSGRYTRYGPAVKGRATISRDNGQSTVRLQLNNLRAEDTATYFCTRGGAVSIDTWGHGTEVIVSS
notes: Selected from a chicken scFv phage library by indirect ELISA
binding result [2]: binds

B3: Anti-Myc scFv clone 3A6 (scFv)
scFv: QAALTQPSSVSANLGGTVKITCSGGGGSDDGSYYYSWHQQKSPGSAPVTVIYENNNRPSDIPSRFSGSKSGSTATLTITGVQAEDEAVYYCGSRDSSYVDYVGIFGAGTTLTVLGQSSRSSGGGGSSGGGGSAVTLDESGGGLQTPGRALSLVCKASGFTFSSYDMAWVRQEPGKGLEYVASISRSGRYTRYGPAVKGRATISRDNGQSTVRLQLNNLRAEDTATYFCTRGGAVSIDTWGHGTEVIVSS
notes: Selected from a chicken scFv phage library by indirect ELISA; Later produced with an 8×His tag
binding result [2]: binds

B4: 2B1-L1-Myc-Ck (scFv)
scFv: QAALTQPSSVSANPGETVKITCSGGDSYAGSYYYGWFQQKAPGSAPVTVIYYNDKRPSDIPSRFSGSTSGSTSTLTITGVQAEDEAVYYCGSIDTSSGTGIFGAGTTLTVLGQSSRSSGGGGSSGGGGSAVTLDESGGGLQTPGGALSLVCKGSGFTFSSYQMFWVRQAPGKGLEYVAEISGSGLSTWYAPAVKGRATISRDNGQSTVRLQLNNLRAEDTGTYYCAKAAGSCGVGTCAGGIVDGIDAWGHGTEVIVSSTSGQAGQGGGGSEQKLISEEDLRTVAAPSVFIFPPSDEQLKSGTASVVCLLNNFYPREAKVQWKVDNALQSGNSQESVTEQDSKDSTYSLSSTLTLSKADYEKHKVYACEVTHQGLSLPVTKSFNRGES
MFI [3]: 2400

B5: 2B1-Ck-L2-Myc (scFv)
scFv: QAALTQPSSVSANPGETVKITCSGGDSYAGSYYYGWFQQKAPGSAPVTVIYYNDKRPSDIPSRFSGSTSGSTSTLTITGVQAEDEAVYYCGSIDTSSGTGIFGAGTTLTVLGQSSRSSGGGGSSGGGGSAVTLDESGGGLQTPGGALSLVCKGSGFTFSSYQMFWVRQAPGKGLEYVAEISGSGLSTWYAPAVKGRATISRDNGQSTVRLQLNNLRAEDTGTYYCAKAAGSCGVGTCAGGIVDGIDAWGHGTEVIVSSTSGQAGQRTVAAPSVFIFPPSDEQLKSGTASVVCLLNNFYPREAKVQWKVDNALQSGNSQESVTEQDSKDSTYSLSSTLTLSKADYEKHKVYACEVTHQGLSSPVTKSFNRGESGGGGSGGGSEQKLISEEDL
MFI [3]: 2070

B6: hMyc (3A6) CAR (3A6-BBz), on human T cells (other)
chain: LTQPSSVSANLGGTVKITCSGGGGSDDGSYYYSWHQQKSPGSAPVTVIYENNNRPSDIPSRFSGSKSGSTATLTITGVQAEDEAVYYCGSRDSSYVDYVGIFGAGTTLTVLGQSSRSSGGGGSSGGGGSAVTLDESGGGLQTPGRALSLVCKASGFTFSSYDMAWVRQEPGKGLEYVASISRSGRYTRYGPAVKGRATISRDNGQSTVRLQLNNLRAEDTATYFCTRGGAVSIDTWGHGTEVIVSSTTTPAPRPPTPAPTIASQPLSLRPEACRPAAGGAVHTRGLDFACDIYIWAPLAGTCGVLLLSLVITLYCKRGRKKLLYIFKQPFMRPVQTTQEEDGCSCRFPEEEEGGCELRVKFSRSADAPAYKQGQNQLYNELNLGRREEYDVLDKRRGRDPEMGGKPRRKNPQEGLYNELQKDKMAEAYSEIGMKGERRRGKGHDGLYQGLSTATKDTYDALHMQALPPR
notes: also called hMyc CAR-T cells (3A6)
number over the gate bar (percent of cells in the gate) [1]: 38.9

B7: Murine anti-His scFv (scFv)
scFv: DILMTQTPSSLPVSLGDQASISCRSSQSIVHSNGNTYLEWYLQKPGQSPKLLIYKVSNRFSGVPDRFSGSGSGTDFTLKISRVEAEDLGVYYCFQGSHVPFTFGSGTKLEIKRGGGGSGGGGSGGGGSGGGGSQVQLQQSGPEDVKPGASVKISCKASGYTFTDYYMNWVKQSPGKGLEWIGDINPNNGGTSYNQKFKGRATLTVDKSSSTAYMELRSLTSEDSSVYYCESQSGAYWGQGTTVTVSA
notes: also called anti-His (3D5M) scFv
Kd [4]: 36.6 nM
koff [4]: 0.00547 s⁻¹
kon [4]: 149000 M⁻¹ s⁻¹

B8: Chicken anti-CD40 scFv (2B1) (scFv)
scFv: QAALTQPSSVSANPGETVKITCSGGDSYAGSYYYGWFQQKAPGSAPVTVIYYNDKRPSDIPSRFSGSTSGSTSTLTITGVQAEDEAVYYCGSIDTSSGTGIFGAGTTLTVLGQSSRSSGGGGSSGGGGSAVTLDESGGGLQTPGGALSLVCKGSGFTFSSYQMFWVRQAPGKGLEYVAEISGSGLSTWYAPAVKGRATISRDNGQSTVRLQLNNLRAEDTGTYYCAKAAGSCGVGTCAGGIVDGIDAWGHGTEVIVSS
notes: also called parental antibody of the humanized anti-CD40 scFv; 2B1 scFv
Kd [5]: 2.83 nM
koff [5]: 0.00588 s⁻¹
kon [5]: 2.08e+06 M⁻¹ s⁻¹

B9: 2B1-Cκ-Myc (2B1-Cκ linked with C-terminal Myc peptide) (scFv)
scFv: QAALTQPSSVSANPGETVKITCSGGDSYAGSYYYGWFQQKAPGSAPVTVIYYNDKRPSDIPSRFSGSTSGSTSTLTITGVQAEDEAVYYCGSIDTSSGTGIFGAGTTLTVLGQSSRSSGGGGSSGGGGSAVTLDESGGGLQTPGGALSLVCKGSGFTFSSYQMFWVRQAPGKGLEYVAEISGSGLSTWYAPAVKGRATISRDNGQSTVRLQLNNLRAEDTGTYYCAKAAGSCGVGTCAGGIVDGIDAWGHGTEVIVSSTSGQAGQRTVAAPSVFIFPPSDEQLKSGTASVVCLLNNFYPREAKVQWKVDNALQSGNSQESVTEQDSKDSTYSLSSTLTLSKADYEKHKVYACEVTHQGLSSPVTKSFNRGESEQKLISEEDL
notes: also called 2B1-Ck-Myc; Myc peptide-tagged anti-hCD40 adaptor
MFI [3]: 1860

B10: 2B1-Ck-L1-Myc (scFv)
scFv: QAALTQPSSVSANPGETVKITCSGGDSYAGSYYYGWFQQKAPGSAPVTVIYYNDKRPSDIPSRFSGSTSGSTSTLTITGVQAEDEAVYYCGSIDTSSGTGIFGAGTTLTVLGQSSRSSGGGGSSGGGGSAVTLDESGGGLQTPGGALSLVCKGSGFTFSSYQMFWVRQAPGKGLEYVAEISGSGLSTWYAPAVKGRATISRDNGQSTVRLQLNNLRAEDTGTYYCAKAAGSCGVGTCAGGIVDGIDAWGHGTEVIVSSTSGQAGQRTVAAPSVFIFPPSDEQLKSGTASVVCLLNNFYPREAKVQWKVDNALQSGNSQESVTEQDSKDSTYSLSSTLTLSKADYEKHKVYACEVTHQGLSSPVTKSFNRGESGGGGSEQKLISEEDL
MFI [3]: 1520

B11: Anti-Myc scFv clone 7A1 (scFv)
scFv: QAALTQPSSVSVNPGETVKITCSGGGSSSYYGWYQQKSPGSAPVTLIYQNTNRPSNIPSRFSGSTSGSTGTLTITGVQAEDEAVYFCGSRDSSGDGIFGAGTTLTVLGQSSRSSGGGGSSGGGGSAVTLDESGGGLQTPGRALSLVCKASGFTFSSYDMAWVRQEPGKGLEYVASISRSGRYTRYGPAVKGRATISRDNGQSTVRLQLNNLRAEDTATYFCTRGGAVSIDTWGHGTEVIVSS
notes: as for B2
binding result [2]: binds

B12: hMyc (7A1) CAR (7A1-BBz), on human T cells (other)
chain: LTQPSSVSVNPGETVKITCSGGGSSSYYGWYQQKSPGSAPVTLIYQNTNRPSNIPSRFSGSTSGSTGTLTITGVQAEDEAVYFCGSRDSSGDGIFGAGTTLTVLGQSSRSSGGGGSSGGGGSAVTLDESGGGLQTPGRALSLVCKASGFTFSSYDMAWVRQEPGKGLEYVASISRSGRYTRYGPAVKGRATISRDNGQSTVRLQLNNLRAEDTATYFCTRGGAVSIDTWGHGTEVIVSSTTTPAPRPPTPAPTIASQPLSLRPEACRPAAGGAVHTRGLDFACDIYIWAPLAGTCGVLLLSLVITLYCKRGRKKLLYIFKQPFMRPVQTTQEEDGCSCRFPEEEEGGCELRVKFSRSADAPAYKQGQNQLYNELNLGRREEYDVLDKRRGRDPEMGGKPRRKNPQEGLYNELQKDKMAEAYSEIGMKGERRRGKGHDGLYQGLSTATKDTYDALHMQALPPR
notes: also called hMyc CAR-T cells (7A1)
number over the gate bar (percent of cells in the gate) [1]: 19
